Drawing on PMC1887683, this text covers binding signal for 1 substance.

The target in this series is STAT1 (activated; HepG2 nuclear extract, IL-6) (UniProt P42224). Put plainly: competition EMSA. Particulars: scale: fold competition efficiency vs c-myc E2F.
STAT1 (activated; HepG2 nuclear extract, IL-6), sequence (P42224 whole entry): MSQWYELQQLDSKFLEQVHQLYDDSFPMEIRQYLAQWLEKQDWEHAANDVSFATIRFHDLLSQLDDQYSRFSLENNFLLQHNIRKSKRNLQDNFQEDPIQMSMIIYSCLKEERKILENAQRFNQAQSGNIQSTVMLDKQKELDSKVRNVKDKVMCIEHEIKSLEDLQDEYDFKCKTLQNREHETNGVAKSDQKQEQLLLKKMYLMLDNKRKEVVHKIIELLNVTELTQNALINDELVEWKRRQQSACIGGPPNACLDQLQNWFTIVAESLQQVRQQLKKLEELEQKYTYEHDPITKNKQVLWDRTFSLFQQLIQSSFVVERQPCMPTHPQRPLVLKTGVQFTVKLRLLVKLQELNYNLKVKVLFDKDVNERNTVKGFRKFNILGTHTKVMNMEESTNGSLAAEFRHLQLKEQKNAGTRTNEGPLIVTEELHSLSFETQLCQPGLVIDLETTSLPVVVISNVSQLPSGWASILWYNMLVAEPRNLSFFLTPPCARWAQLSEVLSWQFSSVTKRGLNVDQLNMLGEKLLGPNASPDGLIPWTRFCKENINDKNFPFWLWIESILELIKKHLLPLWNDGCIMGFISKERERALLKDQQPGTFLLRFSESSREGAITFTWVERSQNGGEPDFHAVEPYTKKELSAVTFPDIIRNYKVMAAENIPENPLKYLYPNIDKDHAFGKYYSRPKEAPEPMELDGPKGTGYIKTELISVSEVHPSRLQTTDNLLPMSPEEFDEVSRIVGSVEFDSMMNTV

The substance APRE (alpha2-macroglobulin) gave a binding signal of 5.
